Experiment [1] concerns the target T1, anti-CD28 scFv (VH-linker 1-VL) (biotinylated (site not stated)).
T1 construct: Captured as biotinylated scFv on neutravidin coated plates in the phage ELISA
Put plainly: phage ELISA; biotinylated scFv on neutravidin plate; anti-M13-HRP.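 Note: crude clonal phage supernatant added to wells pre-incubated with soluble CD28 protein or only blocking buffer, then washed, bound phage read out with an HRP-linked anti-M13 antibody.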 On the technique in general: An ELISA detects its analyte on a solid surface through an enzyme-linked reagent.

The target of experiment [2] is T1, anti-CD28 scFv (VH-linker 1-VL). Put plainly: phage ELISA; scFv wells pre-incubated with soluble CD28 (competitor).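 Note: crude clonal phage supernatants added to wells pretreated with soluble CD28 in blocking buffer, bound phage read via HRP-linked anti-M13 antibody, reference wells got blocking buffer only.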
Method: (§1) Clonal phage were harvested as crude supernatants and screened via standard enzyme linked immunosorbent assays (ELISAs). […] Prior to the addition of clonal phage, wells were incubated with blocking buffer and CD28 soluble protein or blocking buffer alone. Without washing or aspirating, clonal phage supernatants were then added to the wells and incubated for a short time. Wells were then washed followed by detection of bound phage using a horse radish peroxidase conjugated anti-M13 antibody.
In experiment [3] the target is Anti-CD28 scFv (VH-linker 1-VL). As to the kind of experiment: phage ELISA: biotinylated anti-CD28 scFv on neutravidin plate, clonal phage supernatant, anti-M13-HRP.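 Note: before phage addition, wells were preincubated either with soluble CD28 protein in blocking buffer or with blocking buffer only.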
Chain of Anti-CD28 scFv (VH-linker 1-VL) (scFv, as listed by the source): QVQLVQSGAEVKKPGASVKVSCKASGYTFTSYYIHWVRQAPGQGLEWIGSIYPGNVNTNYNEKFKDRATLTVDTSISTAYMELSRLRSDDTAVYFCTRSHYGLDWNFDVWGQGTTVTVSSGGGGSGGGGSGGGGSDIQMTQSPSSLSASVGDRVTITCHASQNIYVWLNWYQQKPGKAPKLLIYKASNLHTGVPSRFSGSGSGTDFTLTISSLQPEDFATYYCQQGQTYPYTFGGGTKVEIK
Method: as §1
The target is the same in experiment [4]. As to the kind of experiment: phage ELISA: biotinylated anti-CD28 scFv on neutravidin plate, clonal phage supernatant, anti-M13-HRP; wells pre-incubated with soluble CD28 (competitor).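 Note: wells pretreated with soluble CD28 protein in blocking buffer before phage addition, no wash in between, reference wells got blocking buffer only, bound phage detected after washing.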
Method: as §1

We go through 46 molecules from US20230357447A1 (JANUX THERAPEUTICS, published 2023).

T1 sequence (scFv, as listed by the source): as above

Consider MDWCPRYLWAECFN (on phage (pIII fusion)) [Phage-279 clonal phage peptide], for which the “CD28 scFv signal” value in experiment [1] turned out to be 2.74. Further, the “CD28 scFv signal in presence of CD28” value in experiment [2] was found to be 1.14. MDWCPIYLWAECFN (on phage (pIII fusion)) [Phage-299 clonal phage peptide]: in experiment [1], the “CD28 scFv signal” value stood at 2.45. The “CD28 scFv signal in presence of CD28” value in experiment [2] came out at 0.307. With MDWCPRDLWDECFN (on phage (pIII fusion)) [Phage-310 clonal phage peptide], in experiment [1], the “CD28 scFv signal” value was found to be 2.37. For the same molecule, the “CD28 scFv signal in presence of CD28” value in experiment [2] is 0.248. On to MNWCPSTMWNRCLT (Clonal phage from the Peptide-9 library) [Phage-428], for which, in experiment [3], the “Phage binding ELISA CD28 scFv signal” value is 0.065. For the same molecule, in experiment [4], the “Phage binding ELISA CD28 scFv signal in presence of CD28” value was 0.07.

Consider MSWCPRDLWHLCFF (on phage (pIII fusion)) [Phage-319 clonal phage peptide], for which the “CD28 scFv signal” value in experiment [1] is 2.27. For the same molecule, in experiment [2], the “CD28 scFv signal in presence of CD28” value was 0.319.

MDLCPTAMWNRCFY (Clonal phage from the Peptide-9 library) [Phage-425]: the “Phage binding ELISA CD28 scFv signal” value in experiment [3] stood at 0.097. In experiment [4], the “Phage binding ELISA CD28 scFv signal in presence of CD28” value amounted to 0.084. With MDWCPRDLWFACFA (on phage (pIII fusion)) [Phage-282 clonal phage peptide], the “CD28 scFv signal” value in experiment [1] is 2.66. Also, in experiment [2], the “CD28 scFv signal in presence of CD28” value was determined as 0.794. Regarding IYWCPIDRWNDCYN (Clonal phage from the Peptide-9 library) [Phage-442], the “Phage binding ELISA CD28 scFv signal” value in experiment [3] is 0.867. For the same molecule, the “Phage binding ELISA CD28 scFv signal in presence of CD28” value in experiment [4] is 0.164. MDWCPRDRWVDCYA (Clonal phage from the Peptide-9 library) [Phage-435]: the “Phage binding ELISA CD28 scFv signal” value in experiment [3] came to 1.48. Also, the “Phage binding ELISA CD28 scFv signal in presence of CD28” value in experiment [4] was found to be 0.403. As to MDWCPTYLWHVCFS (on phage (pIII fusion)) [Phage-315 clonal phage peptide], in experiment [1], the “CD28 scFv signal” value stood at 2.32. The “CD28 scFv signal in presence of CD28” value in experiment [2] was found to be 0.16. For the molecule MDWCPRDLWYQCFN (on phage (pIII fusion)) [Phage-311 clonal phage peptide], the “CD28 scFv signal” value in experiment [1] came to 2.35. In addition, in experiment [2], the “CD28 scFv signal in presence of CD28” value is 0.609. In the case of MDWCPRDLWYVCFA (on phage (pIII fusion)) [Phage-321 clonal phage peptide], the “CD28 scFv signal” value in experiment [1] is 2.22. For the same molecule, the “CD28 scFv signal in presence of CD28” value in experiment [2] was 0.138. MDWCPRHLWHECFT (on phage (pIII fusion)) [Phage-317 clonal phage peptide]: the “CD28 scFv signal” value in experiment [1] is 2.3. In addition, the “CD28 scFv signal in presence of CD28” value in experiment [2] came to 0.32. Regarding MDWCPRDRWADCFN (Clonal phage from the Peptide-9 library) [Phage-436], the “Phage binding ELISA CD28 scFv signal” value in experiment [3] was 1.35. Also, the “Phage binding ELISA CD28 scFv signal in presence of CD28” value in experiment [4] is 0.08.

Regarding MDWCPVDRWADCFN (Clonal phage from the Peptide-9 library) [Phage-437], in experiment [3], the “Phage binding ELISA CD28 scFv signal” value came to 1.16. Further, in experiment [4], the “Phage binding ELISA CD28 scFv signal in presence of CD28” value is 0.315. As to MDWCPRDRWDDCFF (Clonal phage from the Peptide-9 library) [Phage-441], the “Phage binding ELISA CD28 scFv signal” value in experiment [3] was found to be 0.899. The “Phage binding ELISA CD28 scFv signal in presence of CD28” value in experiment [4] amounted to 0.183. Regarding MDWCPRDRWDDCFN (Clonal phage from the Peptide-9 library) [Phage-446], the “Phage binding ELISA CD28 scFv signal” value in experiment [3] was determined as 0.45. Besides, the “Phage binding ELISA CD28 scFv signal in presence of CD28” value in experiment [4] was 0.077. On to MDWCPRDRWVDCFN (Clonal phage from the Peptide-9 library) [Phage-440], for which the “Phage binding ELISA CD28 scFv signal” value in experiment [3] was determined as 0.911. For the same molecule, the “Phage binding ELISA CD28 scFv signal in presence of CD28” value in experiment [4] is 0.132. As for MDWCPRSLWFLCFN (on phage (pIII fusion)) [Phage-281 clonal phage peptide], in experiment [1], the “CD28 scFv signal” value is 2.71. Moreover, the “CD28 scFv signal in presence of CD28” value in experiment [2] worked out at 1.77.

Regarding MDWCPMSRWAFCFD (Clonal phage from the Peptide-9 library) [Phage-438], the “Phage binding ELISA CD28 scFv signal” value in experiment [3] amounted to 1. Besides, the “Phage binding ELISA CD28 scFv signal in presence of CD28” value in experiment [4] stood at 0.115. Take MDWCPRSHWSECFS (on phage (pIII fusion)) [Phage-277 clonal phage peptide]: the “CD28 scFv signal” value in experiment [1] worked out at 0.253. For the same molecule, the “CD28 scFv signal in presence of CD28” value in experiment [2] is 0.087. In the case of MERCPRYLWHMCYS (on phage (pIII fusion)) [Phage-286 clonal phage peptide], the “CD28 scFv signal” value in experiment [1] turned out to be 2.59. Besides, the “CD28 scFv signal in presence of CD28” value in experiment [2] was found to be 0.84.

As for MDWCPKSLWAECFN (on phage (pIII fusion)) [Phage-308 clonal phage peptide], the “CD28 scFv signal” value in experiment [1] was determined as 2.38. Moreover, in experiment [2], the “CD28 scFv signal in presence of CD28” value was 0.162. Turning to MDWCPRDLWAMCFA (on phage (pIII fusion)) [Phage-285 clonal phage peptide], in experiment [1], the “CD28 scFv signal” value was 2.63. Also, the “CD28 scFv signal in presence of CD28” value in experiment [2] is 0.889. On to MAWCPWAQFDECLA (Clonal phage from the Peptide-9 library) [Phage-433], for which, in experiment [3], the “Phage binding ELISA CD28 scFv signal” value was 0.071. For the same molecule, in experiment [4], the “Phage binding ELISA CD28 scFv signal in presence of CD28” value was found to be 0.078. In the same order, the values of MAWCPWASFDECLA (Clonal phage from the Peptide-9 library) [Phage-448] are 0.089 and 0.109.

For MDWCPKFLWDECFA (on phage (pIII fusion)) [Phage-304 clonal phage peptide], the “CD28 scFv signal” value in experiment [1] came out at 2.41. Moreover, the “CD28 scFv signal in presence of CD28” value in experiment [2] is 0.376.

Consider MDWCPIALWDFCFA (on phage (pIII fusion)) [Phage-288 clonal phage peptide], for which the “CD28 scFv signal” value in experiment [1] was found to be 2.52. Besides, the “CD28 scFv signal in presence of CD28” value in experiment [2] was 0.492. Taken in the same sequence, the figures for MDWCPRALWDHCFF (on phage (pIII fusion)) [Phage-292 clonal phage peptide] were 2.49 and 0.394. On to MDWCPRSLWDYCFA (on phage (pIII fusion)) [Phage-294 clonal phage peptide], for which the “CD28 scFv signal” value in experiment [1] turned out to be 2.49. Also, the “CD28 scFv signal in presence of CD28” value in experiment [2] was 0.235.

Regarding MDWCPRSLWNYCFA (on phage (pIII fusion)) [Phage-316 clonal phage peptide], the “CD28 scFv signal” value in experiment [1] was 2.32. Also, in experiment [2], the “CD28 scFv signal in presence of CD28” value came out at 0.198. Consider MDWCPRYLWDYCFA (on phage (pIII fusion)) [Phage-280 clonal phage peptide], for which the “CD28 scFv signal” value in experiment [1] stood at 2.71. In experiment [2], the “CD28 scFv signal in presence of CD28” value worked out at 0.382.

Consider MDWCPRSLWNYCFN (on phage (pIII fusion)) [Phage-313 clonal phage peptide], for which the “CD28 scFv signal” value in experiment [1] came out at 2.35. In addition, the “CD28 scFv signal in presence of CD28” value in experiment [2] was found to be 0.209.

As for IHLCHWVPWIKCSH (Clonal phage from the Peptide-9 library) [Phage-430], in experiment [4], the “Phage binding ELISA CD28 scFv signal in presence of CD28” value worked out at 2.51. For MFLCPSAMWNRCFY (Clonal phage from the Peptide-9 library) [Phage-426], the “Phage binding ELISA CD28 scFv signal” value in experiment [3] came out at 0.094. Moreover, the “Phage binding ELISA CD28 scFv signal in presence of CD28” value in experiment [4] came out at 0.114. On to VILCPTTMWNRCFH (Clonal phage from the Peptide-9 library) [Phage-427], for which, in experiment [3], the “Phage binding ELISA CD28 scFv signal” value worked out at 0.072. Moreover, the “Phage binding ELISA CD28 scFv signal in presence of CD28” value in experiment [4] was 0.084.

As to MDWCPRYLWPVCFH (on phage (pIII fusion)) [Phage-307 clonal phage peptide], in experiment [1], the “CD28 scFv signal” value turned out to be 2.39. The “CD28 scFv signal in presence of CD28” value in experiment [2] amounted to 0.602. For MDWCPRDLWSVCFS (on phage (pIII fusion)) [Phage-290 clonal phage peptide], the “CD28 scFv signal” value in experiment [1] turned out to be 2.5. The “CD28 scFv signal in presence of CD28” value in experiment [2] stood at 0.116. For IDWCPIIQGLPCFA (Clonal phage from the Peptide-9 library) [Phage-432], the “Phage binding ELISA CD28 scFv signal” value in experiment [3] stood at 0.368. Moreover, in experiment [4], the “Phage binding ELISA CD28 scFv signal in presence of CD28” value was determined as 0.065. With INLCPTPMWNRCWL (Clonal phage from the Peptide-9 library) [Phage-423], in experiment [3], the “Phage binding ELISA CD28 scFv signal” value worked out at 0.103. Also, the “Phage binding ELISA CD28 scFv signal in presence of CD28” value in experiment [4] came to 0.101. As for MDWCPTYLWNECFN (on phage (pIII fusion)) [Phage-320 clonal phage peptide], the “CD28 scFv signal” value in experiment [1] came to 2.24. For the same molecule, the “CD28 scFv signal in presence of CD28” value in experiment [2] amounted to 0.606. Turning to IVWCPTTQWNRCAT (Clonal phage from the Peptide-9 library) [Phage-434], the “Phage binding ELISA CD28 scFv signal” value in experiment [3] stood at 0.067. In addition, the “Phage binding ELISA CD28 scFv signal in presence of CD28” value in experiment [4] is 0.083. In the case of MDWCPMTRWNDCYF (Clonal phage from the Peptide-9 library) [Phage-443], in experiment [3], the “Phage binding ELISA CD28 scFv signal” value came to 0.671. The “Phage binding ELISA CD28 scFv signal in presence of CD28” value in experiment [4] stood at 0.078. Take MDWCPRDRWDVCFA (Clonal phage from the Peptide-9 library) [Phage-439]: in experiment [3], the “Phage binding ELISA CD28 scFv signal” value is 0.924. Also, in experiment [4], the “Phage binding ELISA CD28 scFv signal in presence of CD28” value is 0.096. For MAWCPADQWHECFN (Clonal phage from the Peptide-9 library) [Phage-431], the “Phage binding ELISA CD28 scFv signal” value in experiment [3] was 1.84. For the same molecule, in experiment [4], the “Phage binding ELISA CD28 scFv signal in presence of CD28” value is 0.456.

For the molecule ITQCPSTMWNRCSV (Clonal phage from the Peptide-9 library) [Phage-424], the “Phage binding ELISA CD28 scFv signal” value in experiment [3] amounted to 0.098. Besides, in experiment [4], the “Phage binding ELISA CD28 scFv signal in presence of CD28” value was found to be 0.108.
